Legend:
HvPBS1-1:HA = target: T1, HvPBS1-1:HA
T1 chain: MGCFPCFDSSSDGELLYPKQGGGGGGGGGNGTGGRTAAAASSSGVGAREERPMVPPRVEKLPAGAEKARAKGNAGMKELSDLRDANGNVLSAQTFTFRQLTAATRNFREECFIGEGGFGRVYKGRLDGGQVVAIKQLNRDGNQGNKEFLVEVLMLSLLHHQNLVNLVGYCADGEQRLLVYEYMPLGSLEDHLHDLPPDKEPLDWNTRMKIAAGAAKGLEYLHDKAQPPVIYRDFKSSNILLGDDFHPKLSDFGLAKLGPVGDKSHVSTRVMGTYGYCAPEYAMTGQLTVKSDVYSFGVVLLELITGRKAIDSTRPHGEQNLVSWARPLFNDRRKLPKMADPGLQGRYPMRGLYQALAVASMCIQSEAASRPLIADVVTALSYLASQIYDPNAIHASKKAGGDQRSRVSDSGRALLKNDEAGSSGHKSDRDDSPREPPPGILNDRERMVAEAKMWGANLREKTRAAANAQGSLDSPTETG

GmPBS1a = target: T2, GmPBS1a
T2 chain: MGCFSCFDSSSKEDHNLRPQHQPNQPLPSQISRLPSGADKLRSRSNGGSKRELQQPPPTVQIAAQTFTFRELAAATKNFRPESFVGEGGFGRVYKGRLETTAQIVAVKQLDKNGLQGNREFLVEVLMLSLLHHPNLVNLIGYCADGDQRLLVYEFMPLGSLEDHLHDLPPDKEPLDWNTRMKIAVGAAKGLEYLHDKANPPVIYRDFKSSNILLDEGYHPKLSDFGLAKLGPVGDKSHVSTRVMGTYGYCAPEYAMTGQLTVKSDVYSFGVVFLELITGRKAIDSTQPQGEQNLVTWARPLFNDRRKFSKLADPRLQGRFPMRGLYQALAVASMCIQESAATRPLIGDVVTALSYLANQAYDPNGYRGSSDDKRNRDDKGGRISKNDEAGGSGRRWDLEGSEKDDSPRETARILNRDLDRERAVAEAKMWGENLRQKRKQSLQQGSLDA

AtPBS1:HA = target: T3, AtPBS1:HA
T3 chain: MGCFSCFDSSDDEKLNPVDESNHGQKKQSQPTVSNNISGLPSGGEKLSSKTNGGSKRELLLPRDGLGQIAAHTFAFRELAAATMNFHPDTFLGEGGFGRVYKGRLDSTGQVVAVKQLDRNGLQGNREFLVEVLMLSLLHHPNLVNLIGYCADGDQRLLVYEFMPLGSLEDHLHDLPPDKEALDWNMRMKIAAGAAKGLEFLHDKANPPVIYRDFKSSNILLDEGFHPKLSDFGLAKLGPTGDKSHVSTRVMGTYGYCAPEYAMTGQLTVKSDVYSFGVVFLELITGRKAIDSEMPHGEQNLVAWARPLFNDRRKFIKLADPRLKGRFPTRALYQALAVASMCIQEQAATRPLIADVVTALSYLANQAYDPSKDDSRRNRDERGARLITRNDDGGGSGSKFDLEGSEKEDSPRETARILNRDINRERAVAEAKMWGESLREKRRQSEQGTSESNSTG

GmPBS1b = target: T4, GmPBS1b
T4 chain: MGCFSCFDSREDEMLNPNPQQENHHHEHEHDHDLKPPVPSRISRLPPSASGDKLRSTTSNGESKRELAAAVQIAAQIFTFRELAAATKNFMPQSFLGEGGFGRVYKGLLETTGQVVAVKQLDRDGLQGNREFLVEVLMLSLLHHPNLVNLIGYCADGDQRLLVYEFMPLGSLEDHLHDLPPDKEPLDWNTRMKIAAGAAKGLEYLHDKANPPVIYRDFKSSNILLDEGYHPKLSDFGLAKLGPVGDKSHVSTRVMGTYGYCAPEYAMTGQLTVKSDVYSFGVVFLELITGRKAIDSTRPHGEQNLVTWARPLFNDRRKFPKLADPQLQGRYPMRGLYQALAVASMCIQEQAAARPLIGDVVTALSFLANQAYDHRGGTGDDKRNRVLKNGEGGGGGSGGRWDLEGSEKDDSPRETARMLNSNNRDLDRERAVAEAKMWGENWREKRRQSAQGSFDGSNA

HvPBS1-2:HA = target: T5, HvPBS1-2:HA
T5 chain: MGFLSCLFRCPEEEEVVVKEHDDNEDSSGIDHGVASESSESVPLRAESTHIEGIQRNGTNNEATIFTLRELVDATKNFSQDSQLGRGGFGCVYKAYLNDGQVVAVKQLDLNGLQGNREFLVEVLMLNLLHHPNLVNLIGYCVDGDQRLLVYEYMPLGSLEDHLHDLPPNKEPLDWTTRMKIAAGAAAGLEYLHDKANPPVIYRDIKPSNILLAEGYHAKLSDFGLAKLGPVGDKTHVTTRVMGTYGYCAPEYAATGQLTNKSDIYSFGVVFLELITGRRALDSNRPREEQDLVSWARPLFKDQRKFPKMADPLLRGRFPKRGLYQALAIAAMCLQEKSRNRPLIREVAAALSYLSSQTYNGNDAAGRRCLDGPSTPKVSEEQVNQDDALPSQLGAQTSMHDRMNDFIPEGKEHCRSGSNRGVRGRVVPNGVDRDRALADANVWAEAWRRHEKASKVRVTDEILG

GmPBS1c = target: T6, GmPBS1c
T6 chain: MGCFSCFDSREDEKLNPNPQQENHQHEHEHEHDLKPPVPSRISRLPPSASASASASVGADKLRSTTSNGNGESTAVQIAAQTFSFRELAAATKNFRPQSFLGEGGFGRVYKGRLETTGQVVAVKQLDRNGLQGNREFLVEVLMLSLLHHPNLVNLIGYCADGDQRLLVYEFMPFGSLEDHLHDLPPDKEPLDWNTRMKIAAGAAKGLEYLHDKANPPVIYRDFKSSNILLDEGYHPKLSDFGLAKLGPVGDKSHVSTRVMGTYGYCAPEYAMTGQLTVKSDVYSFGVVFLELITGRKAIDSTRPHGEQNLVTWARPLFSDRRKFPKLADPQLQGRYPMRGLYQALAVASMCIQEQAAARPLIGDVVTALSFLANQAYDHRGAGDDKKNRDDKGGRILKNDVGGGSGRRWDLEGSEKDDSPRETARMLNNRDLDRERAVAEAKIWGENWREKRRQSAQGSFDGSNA

B1: AvrPphB:myc (protein)
chain: MKIGTQATSLAVLHNQESHAPQAPIAVRPEPAHAIPEIPLDLAIRPRTRGIHPFLAMTLGDKGCASSSGVSLEDDSHTQVSLSDFSVASRDVNHNNICAGLSTEWLVMSSDGDAESRMDHLDYNGEGQSRGSERHQVYNDALRAALSNDDEAPFFTASTAVIEDAGFSLRREPKTVHASGGSAQLGQTVAHDVAQSGRKHLLSLRFANVQGHAIACSCEGSQFKLFDPNLGEFQSSRSAAPQLIKGLIDHYNSLNYDVACVNEFRVS
cleavage of the substrate (Western blot after transient co-expression in N. benthamiana) (HvPBS1-1:HA): HvPBS1-1:HA and HvPBS1-2:HA are each cleaved by AvrPphB:myc | cleavage of the substrate (GmPBS1a): AvrPphB induces cleavage of all three soybean PBS1 proteins | cleavage of the substrate (immunoblot after co-expression in N. benthamiana) (AtPBS1:HA): immunoblots showing cleavage of PBS1 proteins from Arabidopsis (At), soybean (Gm) and barley (Hv) by AvrPphB | cleavage of the substrate (GmPBS1b): AvrPphB induces cleavage of all three soybean PBS1 proteins | cleavage of the substrate (Western blot after transient co-expression in N. benthamiana) (HvPBS1-2:HA): HvPBS1-1:HA and HvPBS1-2:HA are each cleaved by AvrPphB:myc | cleavage of the substrate (immunoblot after transient co-expression in N. benthamiana) (NbPBS1:HA): Co-expression with AvrPphB:myc, but not the protease inactive mutant, resulted in cleavage of NbPBS1:HA within 6 hours post-transgene expression | cleavage of the substrate (GmPBS1c): AvrPphB induces cleavage of all three soybean PBS1 proteins
